The results in this text go back to the supplement of paper PMC9732359.

This series in a line: protein stability index of a GFP-peptide fusion (yeast GPS) (PSI 1-4); higher = more stable; sorted into four equal gates, so the index is relative within each strain. The essentials:
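Plasmids isolated from each sorting gate were PCR-amplified and Illumina-sequenced, and barcodes assigned the reads to strains. The gates, four of equal size, were set by GFP/Cherry fluorescence ratio on mid-log cultures in leucine-free medium. These cultures were yeast carrying a pooled library of tiled 17-residue yeast protein peptides fused downstream of GFP on a plasmid that also expresses Cherry. The protein stability index is the sum of every gate's read frequency times its gate number.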

± gives the uncertainty stated by the source.

DFLRYINIKYLRLDGHT [SNF2]: the protein stability index is, setting by setting: (doa10∆) 2.5 ± 0.071; (pdr5∆) 1.32 ± 0.062; (san1∆) 1.4 ± 0.14; (ubr1∆) 1.65 ± 0.06.

DEYQAAVEQRKKEKLDS [DPB4] gave a protein stability index (doa10∆) of 3.47 ± 0.13, a protein stability index (pdr5∆) of 3.34 ± 0.14, a protein stability index (san1∆) of 3.38 ± 0.11 and a protein stability index (ubr1∆) of 3.39 ± 0.095.

On to SFAIYSSTIDAPAFHTS [SRB8], for which the protein stability index runs as follows: (doa10∆) 2.21 ± 0.055; (pdr5∆) 2.21 ± 0.056; (san1∆) 2.03 ± 0.065; (ubr1∆) 2.25 ± 0.045.

As to QLCQITCQILESGEDEA [RRP46], the protein stability index is, setting by setting: (doa10∆) 2.25 ± 0.19; (pdr5∆) 1.98 ± 0.082; (san1∆) 1.72 ± 0.09; (ubr1∆) 1.99 ± 0.061.

With DQIAVCEISGSIEQLRN [BRN1], the protein stability index runs as follows: (doa10∆) 3.27 ± 0.16; (pdr5∆) 3.26 ± 0.19; (san1∆) 3.11 ± 0.19.

In the case of TAVSFVSAAEDESLIRE [PRP28], the protein stability index reads like this: (doa10∆) 2.77 ± 0.093; (pdr5∆) 3.27 ± 0.15; (san1∆) 3.04 ± 0.16; (ubr1∆) 2.2 ± 0.15.

For ALAEGHGDAAVLLVEKY [NAS6], the protein stability index amounted to 3.12 ± 0.1 (pdr5∆), 3.04 ± 0.09 (san1∆) and 2.6 ± 0.11 (ubr1∆).

As to SASHFEQYTKKINSWDQ [YJL041W/NSP1], the protein stability index was determined as 2.8 ± 0.076 (doa10∆), 3.06 ± 0.061 (pdr5∆), 2.69 ± 0.083 (san1∆) and 3.02 ± 0.052 (ubr1∆).

For SKLLREHGYQSRGFEVM [RPB2], the protein stability index is, setting by setting: (doa10∆) 3.14 ± 0.13; (pdr5∆) 2.71 ± 0.16; (san1∆) 2.9 ± 0.14; (ubr1∆) 2.61 ± 0.19.

For the sequence ITRFGLSKMRDSVLQLA [RPO31], the protein stability index is, setting by setting: (doa10∆) 3.32 ± 0.14; (pdr5∆) 2.96 ± 0.14; (san1∆) 3.17 ± 0.08; (ubr1∆) 3.44 ± 0.15.

In turn, MVLYKRKPILLPDPKPL [ITC1] showed a protein stability index (doa10∆) of 2.88 ± 0.067, a protein stability index (pdr5∆) of 2.85 ± 0.065, a protein stability index (san1∆) of 2.75 ± 0.067 and a protein stability index (ubr1∆) of 2.66 ± 0.055.

Turning to LLSFVLGVVFGRGGSGW [YML031W/NDC1], the protein stability index by setting is: (doa10∆) 2.33 ± 0.068; (pdr5∆) 2.28 ± 0.067; (san1∆) 2.31 ± 0.077; (ubr1∆) 2.37 ± 0.096.

For the sequence VLITDHIEKLENEFVVL [CDC53], the protein stability index reads like this: (doa10∆) 3.05 ± 0.061; (pdr5∆) 2.61 ± 0.055; (san1∆) 2.1 ± 0.087; (ubr1∆) 2.58 ± 0.054.

On to LEEKLYQMQSNYESVFT [YIL149C/MLP2], for which the protein stability index (doa10∆) was 2.24 ± 0.052, the protein stability index (pdr5∆) is 1.71 ± 0.028, the protein stability index (san1∆) turned out to be 2.52 ± 0.068 and the protein stability index (ubr1∆) stood at 2.57 ± 0.045.

As for GKTYMGWWGHMGGPKQK [QCR8], the protein stability index came to 1.88 ± 0.22 (doa10∆), 1.79 ± 0.11 (pdr5∆), 1.63 ± 0.19 (san1∆) and 2.4 ± 0.14 (ubr1∆).

As to LRRVNARYVIATSTKVS [RPL6A], the protein stability index runs as follows: (doa10∆) 1.45 ± 0.058; (pdr5∆) 1.34 ± 0.047; (san1∆) 1.25 ± 0.095; (ubr1∆) 1.14 ± 0.035.

For the sequence RTLNIQPEVAVKAAINF [YIL149C/MLP2], the protein stability index by setting is: (doa10∆) 2.19 ± 0.054; (pdr5∆) 2.15 ± 0.045; (san1∆) 1.84 ± 0.071; (ubr1∆) 2.21 ± 0.046.

QGLKLAKKHKLNAITLD [SMC3]: the protein stability index was determined as 2.4 ± 0.21 (doa10∆) and 2.64 ± 0.29 (pdr5∆).

Regarding RFNVVKVSAAAGKANKQ [RPS11A], the protein stability index runs as follows: (doa10∆) 1.44 ± 0.068; (pdr5∆) 1.38 ± 0.087; (san1∆) 2.92 ± 0.18; (ubr1∆) 2.22 ± 0.067.

Take ELTLAEQQVKEAEMAYV [SMC4]: the protein stability index worked out at 3.02 ± 0.1 (doa10∆), 3.1 ± 0.076 (pdr5∆), 2.81 ± 0.078 (san1∆) and 2.81 ± 0.074 (ubr1∆).

In the case of NVVEVMDMNEIEDKENS [RPT5], the protein stability index is 3.02 ± 0.087 (doa10∆), 2.58 ± 0.066 (pdr5∆), 2.26 ± 0.067 (san1∆) and 2.71 ± 0.059 (ubr1∆).

As to LNDMNTEISGLKNVNKR [SMC3], the protein stability index turned out to be 3.26 ± 0.064 (doa10∆), 3.27 ± 0.072 (pdr5∆), 3.06 ± 0.058 (san1∆) and 3.12 ± 0.045 (ubr1∆).

With AKNKSTRINGLNSNNSI [REC8], the protein stability index was 3.43 ± 0.14 (doa10∆), 3.15 ± 0.098 (pdr5∆), 3.25 ± 0.061 (san1∆) and 3.27 ± 0.073 (ubr1∆).

On to ERTKQRTAKAYLKVSEE [PRP8], for which the protein stability index reads like this: (doa10∆) 3.08 ± 0.093; (pdr5∆) 3.12 ± 0.11; (san1∆) 3.27 ± 0.056; (ubr1∆) 3.34 ± 0.057.

For the sequence GNISSSTVKKKDIVNIS [REC8], the protein stability index stood at 3.03 ± 0.063 (doa10∆), 3.07 ± 0.056 (pdr5∆), 2.88 ± 0.044 (san1∆) and 3.02 ± 0.05 (ubr1∆).

Consider SKMYNTDKKAFLGALKY [PRP8], for which the protein stability index reads like this: (doa10∆) 2.52 ± 0.092; (pdr5∆) 2.27 ± 0.071; (san1∆) 2.47 ± 0.1; (ubr1∆) 2.63 ± 0.11.
